The nanobody polyreactivity screen of Harvey et al. (2022)

Assay: yeast display, Sf9 membrane polyspecificity reagent, FACS + sequencing; frameworks hold sequencing errors
Procedure, shortened: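 Polyreactivity labels are assigned by the sorting gate from which each nanobody was recovered. The gates were low and high (top ~1%), set on anti-HA fluorescence for expression and streptavidin fluorescence for reagent binding. Before sorting, galactose-induced (36–48 hours) yeast display cells were stained for 1 hour at 4 °C with 10% biotinylated, detergent-solubilized Sf9 membrane reagent.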

| Sequence | polyreactivity (PSR sort gate) |
| --- | --- |
| QVQLVESGGGLVQAGGSLRLSCAASGRIFNWYGMGWYRQAPGKERELVATISSSGDSTYYADSVKGRFTISRDNAKNTVYLQMNSLKPEDTAVFYCAKRARYKFGYWGQGSQVTVSS | high polyreactivity |
| QVQLVESGGGLVQAGGSLRLSCAASGRIFNYNAIGWYRQAPGKERELVAAITCSGGSTYYADSVKGRFTISRDNAQYNVYLQMNSLKPEDTAVYYCIALITYSSDYWGQGTQVTVSS | low polyreactivity |
| QVQLVESGGGLVQAGGSLRLSCAASGRIFPAYAMGWYRQAPGKERELVAAITGGGSTNYADSVKGRFTISRDNAKHTVYLQMNSLKPEDTAVYYCNAAVVWPNRQENDYWGQGTQVTVSS | low polyreactivity |
| QVQLVESGGGLVQAGGSLRLSCAASGRIFPAYAMGWYRQAPGTERELVASIRRGGITYADSVKGRFTISRDNAKNTVYLQMNSLKPEDTAVYYCNADYRGWGYHMDYWGQGTQVTVSS | low polyreactivity |
| QVQLVESGGGLVQAGGSLRLSCAASGRIFPGNAMGWYRQSPGKERELVAGISFSGGRTYYADSVKGRFSISRDNAKNTVYLQMNSLKPEDTAVYYCATKYQQHWWRYDYWGQGTQVTVSS | low polyreactivity |
| QVQLVESGGGLVQAGGSLRLSCAASGRIFPGYAMGWYRQAPGKERELVAAISASGGSTYYADSVKGRFTISRDNAKNTVYLQMNSLKPEDTAVYDCNAVYRLIRFDYWGQGTQVTVSS | high polyreactivity |
| QVQLVESGGGLVQAGGSLRLSCAASGRIFPGYAMGWYRQAPGKQRELVAGISNDASTNYADSVKGRFTISRDNAKNTVYLQMNSLKPEDTAVFYCAAEISYLSVPRYDYWGQGTQVTVSS | low polyreactivity |
| QVQLVESGGGLVQAGGSLRLSCAASGRIFPHNAMGWYRQAPGKERELVAAIRFSGGNTYYADSVKGRFTISRDNAKNTVYLQLNSLKPEDTAVYYCFVYGYVPYNYWGQGTQVTVSS | low polyreactivity |
| QVQLVESGGGLVQAGGSLRLSCAASGRIFPKYAMGWYRQAPGKERELVAAISSSGGSTYYADSVKGRFTISRDNAKNTVYLQMNSLKPEDTAVYYCAAEQYSYGYTIYEYWGQGTQVTVSS | high polyreactivity |
| QVQLVESGGGLVQAGGSLRLSCAASGRIFPLNAMGWYRQAPGKERELVAAIRNGGRTNYADSVKGRFTISPDNAKNTVYVQMNSLKPEDTAVYYCSFTLSSVLQYDSWGQGTQVTVSS | low polyreactivity |
| QVQLVESGGGLVQAGGSLRLSCAASGRIFPLYAMGWYRQAPGKERELGAAISSGGTTYYADSVKGRFTISRDNAKNTVYLQMNSLKPEDTAVYYCARRPAQRWGRFDYWGQGTQVTVSS | low polyreactivity |
| QVQLVESGGGLVQAGGSLRLSCAASGRIFPSYTMGWYRQAPGKERELVAGITKSGSSTYYADSVKGRFTISRDNAKNTVYLQMNSLKPEDTAVYYCAAVYGNPSYRYGYWGQGTQVTVSS | high polyreactivity |
| QVQLVESGGGLVQAGGSLRLSCAASGRIFPTNAMGWYRQAPGKERELVASIDSGGSTKYADSVKGRFTISRDNAKNTVYLLMNSLKPEDTAVYYRALQVLNYDYWGQGTQVTVSS | low polyreactivity |
| QVQLVESGGGLVQAGGSLRLSCAASGRIFPTYAMGWYRQAPGKERELVAGITSGGRTNYADSVKGRFTISRDNAKNTVYLQMNSLKPEDTAVYYCATVSQQSRSLGIDRIYYWGQGTQVTVSS | high polyreactivity |
| QVQLVESGGGLVQAGGSLRLSCAASGRIFPVNAMGCYRQAPGKEREFVSAIRGTGTSTYYADSVKGRFTISRDNAKNTVYLQMNSLKPEDTAVYYCAARGYVQYQGQNVNTFDYWGQGTQVTVSS | low polyreactivity |
| QVQLVESGGGLVQAGGSLRLSCAASGRIFPVNAMGWYRQAPGKERELVATISSGDITNYADSVKGRFTISRDNAKNTVYLQMNSLKPEDTAVYYCAADYTWRAWTYYGIKYNYWGQGTQVTVSS | low polyreactivity |
| QVQLVESGGGLVQAGGSLRLSCAASGRIFPVYAMVSYRQAPGKERELVAAISKRDGSTSYADSVKGRFTISRDNAKNTVYLQMHSLKPEDTAVYYCNVLGYGSSYDYWGQGTQVTVSS | low polyreactivity |
